According to paper PMC3834821:

Biological target: T1, GST-DAZAP1 (UniProt Q9JII5)
T1 sequence: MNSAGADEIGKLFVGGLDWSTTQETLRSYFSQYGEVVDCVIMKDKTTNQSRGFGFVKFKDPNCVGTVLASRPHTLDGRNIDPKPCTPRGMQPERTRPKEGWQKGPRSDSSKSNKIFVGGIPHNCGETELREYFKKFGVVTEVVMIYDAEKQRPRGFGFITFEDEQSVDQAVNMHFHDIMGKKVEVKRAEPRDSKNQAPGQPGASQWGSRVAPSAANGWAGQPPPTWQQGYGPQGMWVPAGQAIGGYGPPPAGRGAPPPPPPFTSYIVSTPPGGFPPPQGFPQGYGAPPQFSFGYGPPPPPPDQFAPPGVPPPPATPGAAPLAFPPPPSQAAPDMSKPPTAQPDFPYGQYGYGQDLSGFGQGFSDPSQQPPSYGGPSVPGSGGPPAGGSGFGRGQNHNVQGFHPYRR
Assay: EMSA
Settings: 20 mM HEPES pH 7.6, 3 mM MgCl2, 40 mM KCl, 2 mM DTT, 5% glycerol, 5 mg/ml heparin; room temperature, 15 min; native 5% PAGE in 0.25x TBE; RNA 0.5-3.0 nM for Kd

Sequence	Kd [nM]
AAGGUGAUAUUUAGUAUAUAGUGACAAUUUAUG [Pot1a-dA]	7.04
AAGGUGAUAUUUAGUAUAUAGUGACACGUAAACAUUUAUG [Pot1a-Wt]	7.82
AAGGUGAUAUUUAUGACACGUAAACAUUUAUG [Pot1a-dE]	301
AAGUGUGAUAUAAUUCACUAUAGAGGU [Crisp2-dB]	81.8
AAGUGUGAUAUAAUUCACUGGUAGUUUAUCAUAGAGGU [Crisp2-WtB]	33.7
ACCUCCUAAUGGUAAGUACCCUACUUGUUCUUCAUUUCUU [Crem-Wt]	18.9
ACCUCCUAAUUUGUUCUUCAUUUCUU [Crem-dA]	169
AUCAUAGAAUUUUAGUUUAUUCUGUGAACUUCAAAAUUGACU [Crisp2-dC]	70.3
AUCAUAGAGGUAGCAUUUUAGUUUAUUCUGUGAACUUCAAAAUUGACU [Crisp2-WtC]	15.1
